Assay results published in paper PMC9323360, “Cloning, Expression, Purification, and Characterization of β-Galactosidase from Bifidobacterium longum and Bifidobacterium pseudocatenulatum” (Molecules, 2022).

Substrate: O=[N+]([O-])c1ccccc1O[C@@H]1O[C@H](CO)[C@H](O)[C@H](O)[C@H]1O
Experiment: purified protein

Protein	Km (pH 5.5, 45 °C) [µM]	Vmax (pH 5.5, 45 °C)	kcat (pH 5.5, 45 °C) [s⁻¹]	kcat/Km (pH 5.5, 45 °C)	Km (pH 6.0, 45 °C) [µM]	Vmax (pH 6.0, 45 °C)	kcat (pH 6.0, 45 °C) [s⁻¹]	kcat/Km (pH 6.0, 45 °C)
BLGLB1 (Bifidobacterium longum) (protein) MTTRRTFRWPSLLTESGRGIAFGGDYNPDQWSEETLDEDIRLMVQAGVNTVALAIFSWDKIEPREGEFTFEWLDHVIDKLGAAGIAVDLASATATAPLWLYERHPEVLPIDRYGHVVNAGSRQSWQPTSPVLKEYALRLCRKLAEHYKDNPYVTAWHMGNEYGWNNRYDYSDNALAAFRTWCEAKYGTVDALNEAWGTAFWSQHVNSFDEVLLPRHMGGDSMVNPPQQLDYERFGNDMLLDFYKAERDAIEEICPGKPFTTNFMVSTDQCTMDYAQWANEVDFVSNDHYFHEGESHLDELACSDALMDSLALGKPWYVMEHSTSAVQWKPLNMRKRAGELMRDSLAHVAMGADAINFFQWRQSASGAEAFHSAMVPHAGSDTKLFRGVCELGAALKTLSDAGVQDTELKRADTAILFSAESEWATRSETLPSMKLNHWHDVRDWYRGYLDAGARADVVPLAYDWSGYQTIVLPTVIALSDEDTRRIADFAENGGTVIVGYATGLIDEHFHIGLGGYPGAGNGLLRDMLGIRSEEFNILGEEAEDEPAEIGLSNGLTTRLWQNDVTSVAPDTRVLATYVGTAAADWELDGVPAITSHPHGQGAAIYVGCDLGRHDITHLLKELNTTAPSDERAPDQRPGGGEINAATTTAAAATHDPRILHTIRQSSDGTIRFDFYLNRSKQPVAVNGVEGDPIIAHRCETDAVGYTLNRNAILIAKTSC	1900 ± 100	3700 ± 100 (oNPG)	1700 ± 40	870 (oNPG)	–	–	–	–
BPGLB1 (Bifidobacterium pseudocatenulatum) (protein) MHRTFKWPELLTDNGKGIAYGGDYNPDQWSEDVWDEDVRLMKQAGVNTVAVAIFSWDRIQPEENRWDFGWLDRIIDKLGKAGIAVDLASATATAPLWLYEKHPEVLPQDKFGHPVNAGSRQSWSPTSPVFKEYALTLCRKLAERYGTNPYVTAWHMGNEYGWNNRYDYSDNALNAFRLWCERKYGTIENLNKAWGTTFWGQEMNGFHEVLIPRFMGADSMVNPGQKLDFERFGNDMLLDFYKAERDAIAEICPDKPFTTNFMVSTDQCCMDYADWAEEVDFVSNDHYFHEGESHIDELFCSDALMDSLALGKPWYVMEHSTSAVQWKPLNARKRKGETVRDSIAHVAMGADAINFFQWRASAFGAESFHSALVPHAGEDTKLFRQVCELGAALKTLGDAGVQGTELEQSDTAILFSAESEWATRSETLPSMKLNHWHDVRDWYRAFLNAGTRADIVPLKYDWNAYKTVVLPTVIMLSAEDTQRLADFAAAGGRVVIGYATGLIDENFHTWLGGYPGAGDGLLREMLGIRGEEFNILGAEAEGEPSEIRLSSGAVTRLWQNDVNVDGERAQVLATYEGEEADEWELDGTAAITRNPYGSGETYFVGCDLNVADLTEFVRENIVEDSANVANPADSDVLHTVRKSADATFDFYLPRGKKEIALQGIEGEPIYLFQAEAEERTGSYTVHRNGVLVVKRA	–	–	–	–	1300 ± 300	1.1 ± 0.1 (oNPG)	0.5 ± 0.02	0.36 (oNPG)
